Molecular target: 92BR020 SOSIP gp140 trimer (stabilized pre-fusion HIV-1 envelope glycoprotein, SOSIP v.7) (HIV-1 subtype B strain 92BR020)
Assay: negative-stain electron microscopy; SOSIP proteins diluted in Tris-buffered saline to ~0.02 mg/mL, adsorbed onto carbon-coated copper grids, stained with 2% uranyl formate; 2D classification compared with published well-folded SOSIP trimers

## 92BR020 SOSIP gp140 trimer (stabilized pre-fusion HIV-1 envelope glycoprotein, SOSIP v.7) (natural protein)
  stoichiometry N: 3
